Laboratory results: publication PMC4927293

Target: heat-aggregated GFP

- apparent KM for aggregated GFP from initial rates of GFP disaggregation by Hsp104 D484K (0.06 uM, 10 mM ATP): fold gain of affinity with Ssa1 (2 uM) and Ydj1 (0.5 uM): > 25 fold
- apparent KM for aggregated GFP from initial rates of GFP disaggregation by Hsp104 D484K (0.06 uM, 10 mM ATP): fold increase of the apparent KM with 1 mM ADP: 2 fold
Substance: Hsp104 D484K (from UniProt P31539 1-908) (enzyme)
